# Tested on: MS2 coat protein
# Test: apparent KD of MS2 coat protein; designed switch direction (-1 OFF switch, 1 ON switch): 1; higher = weaker reporter binding
# How it was run: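 Designed RNA switches sharing common flanks were transcribed on Illumina chips by stalled E. coli RNA polymerase. They were titrated with SNAP-549-labelled MS2 coat protein, from 0.7 or 1.5 nM doubling to 3 µM, in Tris-HCl pH 7.5 buffer with KCl, MgCl2, BSA, DTT, tRNA and Tween-20. Titrations ran without input, with 200 uM small-molecule ligand, or with an oligonucleotide input. The apparent KD of each design is the median over its clusters, after curve-fitting of normalised cluster fluorescence.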
# [1] = input ligand: microRNA oligo, concentration not stated
# [2] = Eterna round: R95, input ligand: FMN 200 uM
# [3] = Eterna round: R95, input ligand: microRNA oligo, concentration not stated
# [4] = Eterna round: R95, input ligand: none
Sequence,apparent KD of MS2 coat protein (input ligand: FMN 200 uM),apparent KD of MS2 coat protein [1],apparent KD of MS2 coat protein (input ligand: none),apparent KD of MS2 coat protein [2],apparent KD of MS2 coat protein [3],apparent KD of MS2 coat protein [4]
"GACCGCGAGGAAGGAUAUGGAGCCUUAUUGGCUCCAGAAGGUCCAUAAGGGACAUGAGGAUCACCCAUGUGGGUUGAAGCGGUC [Fiskers NG1ss - 35] (Eterna round: R96, puzzle: Same State NG 1)",24.6 nM,140 nM,160 nM,,,
GGCAGGUGCAGGCUUGCUUGCACCUGGAAACAUGAGGAUCACCCAUGUUUGGGACAAGCUUUGCUCCUCGUUUUGUC [JL ViennaUCT Isusreraar mod 3] (puzzle: Sensor for hsa-mir-208a),,,,209 nM,133 nM,288 nM
"AGUCCAGCCUGAGCUGGACAAAAGCAUGUACAUGAGGAUCACCCAUGUUCAUGUGCAAGCUUUUUGCUCGUCUUAAA [Zipper 52 - 4] (Eterna round: R96, puzzle: Sensor for hsa-mir-208a)",71.5 nM,10.7 nM,69.8 nM,,,
"GUACAGAUCAGAGGAUAUCACGUCGUUUAGACGUGAGAAGGCUGAUCACACAUGAAUAUUAGUACAUGAGGAUCACCCAUGUAC [SSNG1/15-A3] (Eterna round: R96, puzzle: Same State NG 1)",13.7 nM,13.4 nM,17.5 nM,,,
AUAAGGCAAGCUUUUUUCUCGUUGUGUAAACAUGAGGAUCACCCAUGUGCUCGCCCUGGAUCUUUGGAUCGCAGAAA [Rarisooron] (puzzle: Sensor for hsa-mir-208a),,,,104 nM,33.6 nM,119 nM
AUUAAACAUGAGGAUCACCCAUGUCAACAUAGUCGAGGAUAUGGGCAAAUAAAAUAAGAACCAGAAGGCGAAUAAU [salish99_ss1_r3_075] (puzzle: Same State 1),,,,45.2 nM,266 nM,335 nM
"UUGCGGGCUUGAGGAUAUUGAGUACAUAUGUUUAACAUGAGGAUCACCCAUGUGGGUUGCGGUAUCGAGAAGGUAACUUCCUUC [salish99_SSNG2_r04_810] (Eterna round: R96, puzzle: Same State NG 2)",190 nM,146 nM,157 nM,,,
"UGGUACAUGGGAGGAUAUGGAGUGAAGACAUGAGGAUCACCCAUGUUAUAAAAGCCGAGAGGCAACUAGAAGGCCCAUGUACCU [JL SSNG1 3.93] (Eterna round: R96, puzzle: Same State NG 2)",14.3 nM,37 nM,55 nM,,,
"GUUACAUGAGGAUCACCCAUGUGUGUGUGGGAGUGAGUGGCUUAGGAUAUCUAUGAUUUAAGUUAAGAGAAGGAAGAUUGUUGU [SS-NG3-LRO03] (Eterna round: R96, puzzle: Same State NG 3)",415 nM,196 nM,352 nM,,,
"UUAUUAUUUACAUGAGGAUCACCCAUGUUUUUAUGUCUUAGACAGGAUAUAGUAGUCUCGUUUUACUAGAAGGGUCUUUUUAUU [JR_SSNG3_Sub018] (Eterna round: R96, puzzle: Same State NG 3)",21.3 nM,31.9 nM,39.4 nM,,,
"GCGAAAGCGGUAGGAUAUCUAGGAUAUGGGAAGGACUAAGUCUGGAGGUCACCUCACCCAGAAGGAGAGAAGGACACCGAAAGG [pwkr ssNG2 2FMN + F9.1] (Eterna round: R96, puzzle: Same State NG 2)",534 nM,204 nM,42.6 nM,,,
"CCAUAACAGUGAGGAUAUUGUUGCGAUAAGUGACGAGAAGGCAUUUAUGUGAAAUAAACAUACAUGAGGAUCACCCAUGUUGUA [Omei SS(NG)1 Bv4] (Eterna round: R96, puzzle: Same State NG 1)",17.3 nM,16.7 nM,22.3 nM,,,
AACAAUCUAUCUGAGGAUAUCAUGAAAUAAACAUGAGGAUCACCCAUGUGCAGGAAAACUGCAUAUGAGAAGGCAGAUAGAUUGA [salish99_ss2_r3_x] (puzzle: Same State 2),,,,49.5 nM,605 nM,1060 nM
"GCAGGGCCGGGCCCUGCAGACAUGAGGAUCACCCAUGUAACACAGGAUAUGACUGGGAUACCUGGUUAGAAGGGUGCGAAAGAA [Ustivetice] (Eterna round: R96, puzzle: Same State NG 3)",299 nM,645 nM,57.4 nM,,,
"GGAAUAUUUACAGGAUAUGAGUUGUAAAGUCGAUCAGAAGGGUAGGUGUCUUACACGGUGUGUUACAUGAGGAUCACCCAUGUU [SameState NG1 #20] (Eterna round: R96, puzzle: Same State NG 1)",136 nM,147 nM,215 nM,,,
ACACUUGCACAUGAGGAUCACCCAUGUUGACAAGCUUUUUGCUCGUCUUAUAGAACAAAGAAGAAGAACAACAGAAA [Victory 2] (puzzle: Sensor for hsa-mir-208a version 2),,,,20.7 nM,17.9 nM,21.9 nM

Sequence,apparent KD of MS2 coat protein (input ligand: FMN 200 uM),apparent KD of MS2 coat protein [1],apparent KD of MS2 coat protein (input ligand: none),apparent KD of MS2 coat protein [2],apparent KD of MS2 coat protein [3],apparent KD of MS2 coat protein [4]
GGAGCCGGCACUGAGGAUAUUCAUAAUAAAACAUGAGGAUCACCCAUGUAGGCCAGAAGGCCUUGGGAGAAGGCAGGUCGGCUCG [Mat - Same State 2 - Mod of UCT - D65] (puzzle: Same State 2),,,,16.7 nM,138 nM,185 nM
"UAAAGAUCGCGAGGAUAUCGCGAGGAUCACCCGUGAGAAGGCGCAGAGCCGAGGAUCACCCGGCUGAUCCUGAGGAGGAGGUCA (Eterna round: R96, puzzle: Same State NG 1)",204 nM,213 nM,302 nM,,,
"GAGGGCGAAAGCGACAUGAGGAUCACCCAUGUCCUCGGAGGGCAGGAUAUCCGGCAGUAGCCGAAGGAGAAGGGUCGAAAAGAA [AK SSNG3-V2-35.1] (Eterna round: R96, puzzle: Same State NG 3)",53.4 nM,35.7 nM,53.6 nM,,,
"GCUCGAUGAAAGUCCUACAUGAGGAUCACCCAUGUACGUGGGCAGGAUAUCUACAUGCAGAAUGUAGAGAAGGGCCCAUCGAGC [SameState NG3 #59] (Eterna round: R96, puzzle: Same State NG 3)",10.4 nM,15.1 nM,25.2 nM,,,
"GGUAGGUUACUACCAACACAUGAGGAUCACCCAUGUUAUGGGAAGGAUAUGGUACCUAUUUGGUACCAGAAGGUCCAGUUAAUU [Fiskers NG3ss - 16] (Eterna round: R96, puzzle: Same State NG 3)",77.6 nM,206 nM,449 nM,,,
UCAAGCGAGAGGCUCGUCUUAUGUAAGGUACAUGAGGAUCACCCAUGUGAGGGACGAUUGAGUUAGAUGGAAUGGAG [JR_SHM208A_Sub033] (puzzle: Sensor for hsa-mir-208a),,,,42.3 nM,121 nM,50.9 nM
UGGAUCUAGGCUUGCCUGGGUCCAUGCUGACAUGAGGAUCACCCAUGUGCAUUCUAUAAGCUUUUUGUUUGUCAGCU (puzzle: Sensor for hsa-mir-208a),,,,360 nM,25.1 nM,411 nM
UGUCCAGCCUGAGCUGGACAAAAGCAUGUACAUGAGGAUCACCCAUGUUCAUGUACAAGCUUUUUGCUCGUCUUAUC [salish99_208a_r3_057] (puzzle: Sensor for hsa-mir-208a),,,,401 nM,13.2 nM,526 nM
"GGAAAGAGGUUAGGAUAUGCAUGGCUGGGACAUGAGGAUCACCCAUGUAAUAGAAGAAAUCUAGGGUAGAAGGGACAAGGAAGG [ssng2 v2 a] (Eterna round: R96, puzzle: Same State NG 2)",507 nM,278 nM,644 nM,,,
"GUAGCAUACCGAGGAUAUUCAUAUAACAUGAGGAUCACCCAUGUAAGGCCACAUUAGUGGCCUUGGGAGAAGGCGGAAUGCUAC [Xeonanis - 20 Mod41] (Eterna round: R96, puzzle: Same State NG 2)",11.7 nM,63.5 nM,77.1 nM,,,
GUGGGACAUGAGGAUCACCCAUGUGGGAGGGAACGAGGAUAUGUGAGGAGCGAGAAGUGAACAGAAGGCGUGGUUG [JR_SS1_Sub023] (puzzle: Same State 1),,,,,75.3 nM,
UGGCCAGCCUGUGCUGGGCUUUUGCAUGUACAUGAGGAUCACCCAUGUCGUGUUCAUGCUUUUUGCUCGUCUUUAAA [Photon Torp-03] (puzzle: Sensor for hsa-mir-208a),,,,49.5 nM,16.3 nM,55.8 nM
"GUUGAAUUGCAAGGAUAUCUUAGUCAGACGCUAAGAGAAGGUGCUUUACAGUUACAUGAGGAUCACCCAUGUCUUUCUUUUGAU [Jens NG1-01] (Eterna round: R96, puzzle: Same State NG 1)",23.4 nM,20.2 nM,28.5 nM,,,
"GGACGUCGAUUUCCUACUUAAACAUGAGGAUCACCCAUGUCACAGGAUAUGAGUCCGAUUAGGACUCAGAAGGGUGCGACGUCC [Fiskers NG3ss - 52] (Eterna round: R96, puzzle: Same State NG 3)",22.7 nM,11.1 nM,18.8 nM,,,
UAGUACAAGCUUUUUGCUUGUCUUAUUUAACAUGAGGAUCACCCAUGUAAGUUGAAAGUUAGAGAGUGGAGGUUGAA [JR_SHM208A_Sub050] (puzzle: Sensor for hsa-mir-208a),,,,20 nM,20.4 nM,18.8 nM

# Source: the supplement of paper PMC9170038
